Source: the Human Domainome abundance scans (Beltran et al. 2025)
± gives the uncertainty stated by the source.

Experiment: abundance fitness (aPCA) (normalised: wild type 0, dead -1); higher = more abundant; growth selection in yeast, the domain comes from the species named
Settings: Homo sapiens
Substance “Scaffold attachment factor B2 T49C, Q14151” has an abundance fitness of -0.266 ± 0.12.
“Scaffold attachment factor B2 T49D, Q14151” showed an abundance fitness of -0.472 ± 0.13.
With “Scaffold attachment factor B2 T49E, Q14151” the abundance fitness was -0.26 ± 0.094.
In the case of “Scaffold attachment factor B2 T49F, Q14151”, the abundance fitness is reported as -0.452 ± 0.1.
“Scaffold attachment factor B2 T49G, Q14151” gave an abundance fitness of -0.509 ± 0.075.
Work on “Scaffold attachment factor B2 T49H, Q14151” yielded an abundance fitness of -0.647 ± 0.18.
“Scaffold attachment factor B2 T49I, Q14151” showed an abundance fitness of -0.401 ± 0.2.
In the case of “Scaffold attachment factor B2 T49K, Q14151”, the abundance fitness is reported as -0.788 ± 0.16.
In the case of “Scaffold attachment factor B2 T49L, Q14151”, the abundance fitness is reported as -0.155 ± 0.089.
Substance “Scaffold attachment factor B2 T49M, Q14151” has an abundance fitness of -0.606 ± 0.12.
For “Scaffold attachment factor B2 T49N, Q14151”, the abundance fitness was -0.807 ± 0.43.
“Scaffold attachment factor B2 T49P, Q14151” gave an abundance fitness of -0.349 ± 0.084.
Substance “Scaffold attachment factor B2 T49Q, Q14151” has an abundance fitness of -0.286 ± 0.11.
“Scaffold attachment factor B2 T49R, Q14151” gave an abundance fitness of -0.766 ± 0.077.
With “Scaffold attachment factor B2 T49S, Q14151” the abundance fitness was -0.159 ± 0.087.
With “Scaffold attachment factor B2 T49V, Q14151” the abundance fitness was -0.201 ± 0.07.
In the case of “Scaffold attachment factor B2 T49W, Q14151”, the abundance fitness is reported as -0.365 ± 0.1.
“Scaffold attachment factor B2 T49Y, Q14151” gave an abundance fitness of -0.512 ± 0.18.
With “Scaffold attachment factor B2 V35A, Q14151” the abundance fitness was -0.2 ± 0.074.
For “Scaffold attachment factor B2 V35C, Q14151”, the abundance fitness was -0.565 ± 0.12.
In the case of “Scaffold attachment factor B2 V35D, Q14151”, the abundance fitness is reported as -0.087 ± 0.11.
“Scaffold attachment factor B2 V35E, Q14151” gave an abundance fitness of 0.129 ± 0.083.
“Scaffold attachment factor B2 V35F, Q14151” showed an abundance fitness of -0.448 ± 0.099.
With “Scaffold attachment factor B2 V35G, Q14151” the abundance fitness was -0.351 ± 0.074.
For “Scaffold attachment factor B2 V35H, Q14151”, the abundance fitness was -0.57 ± 0.12.
Work on “Scaffold attachment factor B2 V35L, Q14151” yielded an abundance fitness of -0.353 ± 0.078.
Substance “Scaffold attachment factor B2 V35M, Q14151” has an abundance fitness of -0.236 ± 0.12.
Substance “Scaffold attachment factor B2 V35Q, Q14151” has an abundance fitness of -0.431 ± 0.1.
“Scaffold attachment factor B2 V35R, Q14151” gave an abundance fitness of -0.438 ± 0.067.
For “Scaffold attachment factor B2 V35S, Q14151”, the abundance fitness was -0.184 ± 0.089.
“Scaffold attachment factor B2 V35T, Q14151” gave an abundance fitness of -0.075 ± 0.084.
Work on “Scaffold attachment factor B2 V35W, Q14151” yielded an abundance fitness of -0.684 ± 0.083.
Substance “Scaffold attachment factor B2 V55A, Q14151” has an abundance fitness of -0.052 ± 0.095.
In the case of “Scaffold attachment factor B2 V55C, Q14151”, the abundance fitness is reported as -0.294 ± 0.12.
“Scaffold attachment factor B2 V55D, Q14151” showed an abundance fitness of -0.007 ± 0.1.
“Scaffold attachment factor B2 V55E, Q14151” gave an abundance fitness of 0.086 ± 0.097.
With “Scaffold attachment factor B2 V55F, Q14151” the abundance fitness was -0.748 ± 0.29.
With “Scaffold attachment factor B2 V55G, Q14151” the abundance fitness was -0.438 ± 0.076.
Substance “Scaffold attachment factor B2 V55H, Q14151” has an abundance fitness of -0.583 ± 0.15.
For “Scaffold attachment factor B2 V55I, Q14151”, the abundance fitness was -0.668 ± 0.27.
“Scaffold attachment factor B2 V55K, Q14151” gave an abundance fitness of -0.267 ± 0.094.
With “Scaffold attachment factor B2 V55L, Q14151” the abundance fitness was -0.167 ± 0.14.
For “Scaffold attachment factor B2 V55M, Q14151”, the abundance fitness was -0.02 ± 0.23.
Substance “Scaffold attachment factor B2 V55P, Q14151” has an abundance fitness of -0.643 ± 0.13.
